Experimental data from PMC11487180, “PAK6 rescues pathogenic LRRK2-mediated ciliogenesis and centrosomal cohesion defects in a mutation-specific manner” (Cell Death & Disease, 2024).

Biological target: T1, AK7 (human, UniProt Q96M32 1-723)
T1 construct: AK7, human, recombinant protein on the HuProt array; source: bought: HuProt Human Proteome Microarray v4.0, Cambridge Protein Arrays (recombinant protein spotted on the array)
Assay: peptide or protein array; HuProt Human Proteome Microarray v4.0 (GST proteins spotted) incubated with recombinant PAK6 in 2% BSA, PBS, 0.05% Tween20 for 2 h at RT; detected with anti-PAK6 and fluorophore conjugated secondary antibody; hits by Z score > 2.5
Conditions: both partners purified

T1 sequence (Q96M32 whole entry): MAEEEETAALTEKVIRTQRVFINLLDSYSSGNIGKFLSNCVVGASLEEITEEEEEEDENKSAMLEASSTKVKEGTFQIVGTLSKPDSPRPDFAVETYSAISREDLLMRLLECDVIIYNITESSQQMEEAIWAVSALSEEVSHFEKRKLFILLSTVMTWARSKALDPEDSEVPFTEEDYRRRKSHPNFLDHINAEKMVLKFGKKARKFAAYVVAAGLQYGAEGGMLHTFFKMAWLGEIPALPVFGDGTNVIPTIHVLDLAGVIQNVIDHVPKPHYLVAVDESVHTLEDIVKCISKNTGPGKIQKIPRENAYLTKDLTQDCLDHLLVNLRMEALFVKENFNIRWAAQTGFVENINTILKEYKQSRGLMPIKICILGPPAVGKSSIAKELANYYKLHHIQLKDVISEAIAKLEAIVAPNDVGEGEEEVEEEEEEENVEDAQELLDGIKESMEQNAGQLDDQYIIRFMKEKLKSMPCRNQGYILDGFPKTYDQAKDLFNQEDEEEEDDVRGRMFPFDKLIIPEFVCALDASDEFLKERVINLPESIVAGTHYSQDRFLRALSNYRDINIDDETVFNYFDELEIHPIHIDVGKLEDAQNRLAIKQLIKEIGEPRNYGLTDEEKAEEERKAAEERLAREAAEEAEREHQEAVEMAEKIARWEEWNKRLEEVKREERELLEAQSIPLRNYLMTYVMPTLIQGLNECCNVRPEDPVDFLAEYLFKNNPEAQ

- binding result: binds
B1: Recombinant full-length human PAK6 (ThermoFisher, #PR5307A) (enzyme, UniProt Q9NQU5 1-681, looked up)
chain: MFRKKKKKRPEISAPQNFQHRVHTSFDPKEGKFVGLPPQWQNILDTLRRPKPVVDPSRITRVQLQPMKTVVRGSAMPVDGYISGLLNDIQKLSVISSNTLRGRSPTSRRRAQSLGLLGDEHWATDPDMYLQSPQSERTDPHGLYLSCNGGTPAGHKQMPWPEPQSPRVLPNGLAAKAQSLGPAEFQGASQRCLQLGACLQSSPPGASPPTGTNRHGMKAAKHGSEEARPQSCLVGSATGRPGGEGSPSPKTRESSLKRRLFRSMFLSTAATAPPSSSKPGPPPQSKPNSSFRPPQKDNPPSLVAKAQSLPSDQPVGTFSPLTTSDTSSPQKSLRTAPATGQLPGRSSPAGSPRTWHAQISTSNLYLPQDPTVAKGALAGEDTGVVTHEQFKAALRMVVDQGDPRLLLDSYVKIGEGSTGIVCLAREKHSGRQVAVKMMDLRKQQRRELLFNEVVIMRDYQHFNVVEMYKSYLVGEELWVLMEFLQGGALTDIVSQVRLNEEQIATVCEAVLQALAYLHAQGVIHRDIKSDSILLTLDGRVKLSDFGFCAQISKDVPKRKSLVGTPYWMAPEVISRSLYATEVDIWSLGIMVIEMVDGEPPYFSDSPVQAMKRLRDSPPPKLKNSHKVSPVLRDFLERMLVRDPQERATAQELLDHPFLLQTGLPECLVPLIQLYRKQTSTC
notes: source: bought: ThermoFisher, #PR5307A
